Source: IntAct's records for PubMed 30623132

B1: Myosin-7 (Homo sapiens), P12883 (parent)
chain: MGDSEMAVFGAAAPYLRKSEKERLEAQTRPFDLKKDVFVPDDKQEFVKAKIVSREGGKVTAETEYGKTVTVKEDQVMQQNPPKFDKIEDMAMLTFLHEPAVLYNLKDRYGSWMIYTYSGLFCVTVNPYKWLPVYTPEVVAAYRGKKRSEAPPHIFSISDNAYQYMLTDRENQSILITGESGAGKTVNTKRVIQYFAVIAAIGDRSKKDQSPGKGTLEDQIIQANPALEAFGNAKTVRNDNSSRFGKFIRIHFGATGKLASADIETYLLEKSRVIFQLKAERDYHIFYQILSNKKPELLDMLLITNNPYDYAFISQGETTVASIDDAEELMATDNAFDVLGFTSEEKNSMYKLTGAIMHFGNMKFKLKQREEQAEPDGTEEADKSAYLMGLNSADLLKGLCHPRVKVGNEYVTKGQNVQQVIYATGALAKAVYERMFNWMVTRINATLETKQPRQYFIGVLDIAGFEIFDFNSFEQLCINFTNEKLQQFFNHHMFVLEQEEYKKEGIEWTFIDFGMDLQACIDLIEKPMGIMSILEEECMFPKATDMTFKAKLFDNHLGKSANFQKPRNIKGKPEAHFSLIHYAGIVDYNIIGWLQKNKDPLNETVVGLYQKSSLKLLSTLFANYAGADAPIEKGKGKAKKGSSFQTVSALHRENLNKLMTNLRSTHPHFVRCIIPNETKSPGVMDNPLVMHQLRCNGVLEGIRICRKGFPNRILYGDFRQRYRILNPAAIPEGQFIDSRKGAEKLLSSLDIDHNQYKFGHTKVFFKAGLLGLLEEMRDERLSRIITRIQAQSRGVLARMEYKKLLERRDSLLVIQWNIRAFMGVKNWPWMKLYFKIKPLLKSAEREKEMASMKEEFTRLKEALEKSEARRKELEEKMVSLLQEKNDLQLQVQAEQDNLADAEERCDQLIKNKIQLEAKVKEMNERLEDEEEMNAELTAKKRKLEDECSELKRDIDDLELTLAKVEKEKHATENKVKNLTEEMAGLDEIIAKLTKEKKALQEAHQQALDDLQAEEDKVNTLTKAKVKLEQQVDDLEGSLEQEKKVRMDLERAKRKLEGDLKLTQESIMDLENDKQQLDERLKKKDFELNALNARIEDEQALGSQLQKKLKELQARIEELEEELEAERTARAKVEKLRSDLSRELEEISERLEEAGGATSVQIEMNKKREAEFQKMRRDLEEATLQHEATAAALRKKHADSVAELGEQIDNLQRVKQKLEKEKSEFKLELDDVTSNMEQIIKAKANLEKMCRTLEDQMNEHRSKAEETQRSVNDLTSQRAKLQTENGELSRQLDEKEALISQLTRGKLTYTQQLEDLKRQLEEEVKAKNALAHALQSARHDCDLLREQYEEETEAKAELQRVLSKANSEVAQWRTKYETDAIQRTEELEEAKKKLAQRLQEAEEAVEAVNAKCSSLEKTKHRLQNEIEDLMVDVERSNAAAAALDKKQRNFDKILAEWKQKYEESQSELESSQKEARSLSTELFKLKNAYEESLEHLETFKRENKNLQEEISDLTEQLGSSGKTIHELEKVRKQLEAEKMELQSALEEAEASLEHEEGKILRAQLEFNQIKAEIERKLAEKDEEMEQAKRNHLRVVDSLQTSLDAETRSRNEALRVKKKMEGDLNEMEIQLSHANRMAAEAQKQVKSLQSLLKDTQIQLDDAVRANDDLKENIAIVERRNNLLQAELEELRAVVEQTERSRKLAEQELIETSERVQLLHSQNTSLINQKKKMDADLSQLQTEVEEAVQECRNAEEKAKKAITDAAMMAEELKKEQDTSAHLERMKKNMEQTIKDLQHRLDEAEQIALKGGKKQLQKLEARVRELENELEAEQKRNAESVKGMRKSERRIKELTYQTEEDRKNLLRLQDLVDKLQLKVKAYKRQAEEAEEQANTNLSKFRKVQHELDEAEERADIAESQVNKLRAKSRDIGTKGLNEE

Variants of: B1
Conditions: with mypc3_human MYBPC3, Q14896
Chain of mypc3_human MYBPC3, Q14896 (Q14896 whole entry): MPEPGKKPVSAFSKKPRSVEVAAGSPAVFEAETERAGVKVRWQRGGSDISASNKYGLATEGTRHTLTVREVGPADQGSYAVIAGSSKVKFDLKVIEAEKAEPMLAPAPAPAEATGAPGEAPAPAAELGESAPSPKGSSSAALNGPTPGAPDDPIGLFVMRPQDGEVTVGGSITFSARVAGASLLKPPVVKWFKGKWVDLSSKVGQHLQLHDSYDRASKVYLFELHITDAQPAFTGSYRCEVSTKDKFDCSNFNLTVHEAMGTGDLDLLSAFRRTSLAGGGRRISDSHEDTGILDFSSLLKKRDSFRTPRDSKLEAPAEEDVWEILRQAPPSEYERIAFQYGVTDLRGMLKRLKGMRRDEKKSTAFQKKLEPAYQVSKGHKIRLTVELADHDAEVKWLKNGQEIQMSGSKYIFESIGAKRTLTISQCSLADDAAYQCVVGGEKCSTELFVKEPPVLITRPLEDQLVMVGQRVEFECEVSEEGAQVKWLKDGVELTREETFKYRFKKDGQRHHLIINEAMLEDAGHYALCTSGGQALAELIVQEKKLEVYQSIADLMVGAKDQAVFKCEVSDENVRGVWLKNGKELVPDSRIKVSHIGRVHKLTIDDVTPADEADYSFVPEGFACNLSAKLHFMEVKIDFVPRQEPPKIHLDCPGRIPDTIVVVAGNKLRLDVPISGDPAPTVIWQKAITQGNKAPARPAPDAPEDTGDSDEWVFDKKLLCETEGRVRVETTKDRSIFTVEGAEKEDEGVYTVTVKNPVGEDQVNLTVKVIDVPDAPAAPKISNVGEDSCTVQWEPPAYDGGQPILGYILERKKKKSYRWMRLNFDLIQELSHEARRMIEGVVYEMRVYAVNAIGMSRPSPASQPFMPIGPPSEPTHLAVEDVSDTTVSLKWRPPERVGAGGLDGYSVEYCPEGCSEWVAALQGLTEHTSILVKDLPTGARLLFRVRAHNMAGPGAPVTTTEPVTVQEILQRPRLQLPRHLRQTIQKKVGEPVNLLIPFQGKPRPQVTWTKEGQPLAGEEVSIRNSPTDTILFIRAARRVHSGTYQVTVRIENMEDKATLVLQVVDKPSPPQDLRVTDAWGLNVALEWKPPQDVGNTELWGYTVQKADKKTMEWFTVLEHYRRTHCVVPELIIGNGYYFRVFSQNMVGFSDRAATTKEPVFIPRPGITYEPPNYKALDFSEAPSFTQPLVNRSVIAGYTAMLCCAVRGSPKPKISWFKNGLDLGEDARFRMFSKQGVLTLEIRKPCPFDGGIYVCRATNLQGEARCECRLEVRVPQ

| Variant | effect of a mutation on the interaction |
| --- | --- |
| E848G | disrupting interaction strength |
